Experimental data reported in publication PMC11629553, “Mechanistic diversity and functional roles define the substrate specificity and ligand binding of bacterial PGP phosphatases” (The Journal of Biological Chemistry, 2024).
Where two headings read alike, the source gives them in different places.

Experiments:
Assay type in all cases: biochemical, Escherichia coli
[1] = substrate: CCCCCCCC/C=C\CCCCCCCC(=O)OC[C@@H](O)COP(=O)(O)O; test: phosphate release kinetics, surface dilution model (Km)
[2] = substrate: O=CC(O)COP(=O)(O)O; test: phosphate release kinetics, Michaelis-Menten (Km); conditions: Mg2+
[3] = substrate: O=P(O)(O)OCC(O)CO; test: phosphate release kinetics, Michaelis-Menten (Km); conditions: Mg2+

B1: PgpC (Escherichia coli K-12) (protein)
chain: MATHERRVVFFDLDGTLHQQDMFGSFLRYLLRRQPLNALLVLPLLPIIAIALLIKGRAARWPMSLLLWGCTFGHSEARLQTLQADFVRWFRDNVTAFPLVQERLTTYLLSSDADIWLITGSPQPLVEAVYFDTPWLPRVNLIASQIQRGYGGWVLTMRCLGHEKVAQLERKIGTPLRLYSGYSDSNQDNPLLYFCQHRWRVTPRGELQQLE
notes: N-terminal His-tagged PgpC purified in DDM
B1 showed a Km ([1]; Mg2+) of 190.2 µM.

B2: PgpA (Escherichia coli K-12) (protein)
chain: MTILPRHKDVAKSRLKMSNPWHLLAVGFGSGLSPIVPGTMGSLAAIPFWYLMTFLPWQLYSLVVMLGICIGVYLCHQTAKDMGVHDHGSIVWDEFIGMWITLMALPTNDWQWVAAGFVIFRILDMWKPWPIRWFDRNVHGGMGIMIDDIVAGVISAGILYFIGHHWPLGILS
notes: N-terminal His-tagged PgpA purified in DDM
In the case of B2, the Km [2] is reported as 765 µM, the Km [3] is reported as 327 µM and the Km ([1]; Mg2+) is reported as 83.8 µM.

B3: PgpB (Escherichia coli K-12) (protein)
chain: RSIARRTAVGAALLLVMPVAVWISGWRWQPGEQSWLLKAAFWVTETVTQPWGVITHLILFGWFLWCLRFRIKAAFVLFAILAAAILVGQGVKSWIKDKVQEPRPFVIWLEKTHHIPVDEFYTLKRAERGNLVKEQLAEEKNIPQYLRSHWQKETGFAFPSGHTMFAASWALLAVGLLWPRRRTLTIAILLVWATGVMGSRLLLGMHWPRDLVVATLISWALVAVATWLAQRICGPLTPPAEENREIAQREQES
notes: N-terminal His-tagged PgpB purified in DDM
With B3 the Km [1] was 179.6 µM.
